In this data set the test system is ATP. In words: switch fluorescence ratio, 500 uM ATP over buffer (Cy3 cluster intensity, sum of 5 cycles each) (fold (ratio)); higher = stronger signal-on switching upon ATP binding; sequences stand for … in TCGTCGGCAGCGTCAGATGTGTATAAGAGACAGTTTTTTTTTTTTTTTTTTTTTTTTT…TC. Particulars: aptamer strand: ATP DNA aptamer (quencher-CACCTGGGGGAGTATTGCGGAGGAAGG + anchor), 100 nM annealed; ATP concentration: 500 uM. Summed up:
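Clusters carrying Cy3-labelled switching strands on a modified Illumina MiSeq flow-cell were annealed to 100 nM quencher-labelled ATP aptamer and imaged in selection buffer. They were imaged again after 15 min with 500 uM ATP at 22 °C, over five buffer/ATP cycles with NaOH stripping and re-annealing in between. For each cluster, the fluorescence ratio is the summed Cy3 intensity of the target cycles divided by that of the buffer cycles, averaged per switch-domain sequence. Clusters outside 100-1000 RFU were left out.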

± gives the standard deviation of the averaged measurements.

This note sets out measurements from the supplement of paper PMC10126150.
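Further: ATP exposure 15 min at 22 °C before imaging.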

Regarding GAGCAACGGA, the switch fluorescence ratio was determined as 1.02 ± 0.031. Next, GAGCAGTCGG: 0.982 ± 0.036; GAGCCTGGTT: 0.967 ± 0.035. The figure for GAGCCTTTGT is 1.002 ± 0.006. Next, GAGCGAGGGG: 0.9836 ± 0.0074; GAGCGCTTGG: 1.01 ± 0.037. Turning to GAGCGGCGGG, the switch fluorescence ratio stood at 0.996 ± 0.026. Turning to GAGCGGGATG, the switch fluorescence ratio was determined as 0.986 ± 0.031. The figure for GAGCGGTTAT is 1.33 ± 0.42; for GAGCGTGACG it is 1 ± 0.045; for GAGCTACCCG it is 1.04 ± 0.031. The figure for GAGCTACGTA is 1.04 ± 0.026. Turning to GAGCTAGAAA, the switch fluorescence ratio was determined as 1.05 ± 0.065. As to GAGCTATTCT, the switch fluorescence ratio turned out to be 1.08 ± 0.0029. Next, GAGCTCAAGT: 0.991 ± 0.062. Turning to GAGCTCACGG, the switch fluorescence ratio came out at 1.02 ± 0.017.

Regarding GAGCTCCAGA, the switch fluorescence ratio worked out at 1.0093 ± 0.00081. Regarding GAGCTCTTTC, the switch fluorescence ratio turned out to be 1.01 ± 0.017. Consider GAGCTGAGCG, for which the switch fluorescence ratio was determined as 0.996 ± 0.031.

In the case of GAGCTGTAAC, the switch fluorescence ratio came out at 1.02 ± 0.053.

Consider GAGGAAAGGG, for which the switch fluorescence ratio worked out at 0.989 ± 0.013. Next, GAGGACCCAG: 1.01 ± 0.027; GAGGACGGTG: 1.03 ± 0.015. For the sequence GAGGACTAGG, the switch fluorescence ratio worked out at 1.01 ± 0.013. With GAGGACTATT, the switch fluorescence ratio was 0.999 ± 0.046. Next, GAGGAGCTAA: 1.006 ± 0.0034; GAGGATGCTC: 1.01 ± 0.015; GAGGATTGTG: 0.976 ± 0.012.

Consider GAGGATTTAG, for which the switch fluorescence ratio is 0.964 ± 0.013. In the case of GAGGATTTTG, the switch fluorescence ratio stood at 1.003 ± 0.0089. For GAGGCAAGTG, the switch fluorescence ratio was found to be 1.12 ± 0.055.

In the case of GAGGCAATTT, the switch fluorescence ratio stood at 2.87 ± 0.68. The figure for GAGGCAGGGG is 1.04 ± 0.072. The figure for GAGGCAGTTG is 0.993 ± 0.076. Turning to GAGGCATGGA, the switch fluorescence ratio was 0.9864 ± 0.0039. The figure for GAGGCATGGG is 1.027 ± 0.0065. Next, GAGGCCCTGA: 0.971 ± 0.035; GAGGCCGGAA: 1.07 ± 0.016; GAGGCGCAGT: 0.9988 ± 0.0024. As for GAGGCGGGGG, the switch fluorescence ratio was determined as 0.988 ± 0.012. The figure for GAGGCTAATT is 1.03 ± 0.057; for GAGGCTCGGA it is 0.982 ± 0.029. Take GAGGCTGTAT: the switch fluorescence ratio was determined as 1 ± 0.011. Next, GAGGCTGTGC: 1.052 ± 0.0057; GAGGGAATTT: 1.01 ± 0.021. For GAGGGACTAA, the switch fluorescence ratio was 0.9972 ± 0.0095. Next, GAGGGACTCT: 0.964 ± 0.013; GAGGGAGCTT: 1.04 ± 0.026. The figure for GAGGGAGGAG is 1 ± 0.029; for GAGGGATGGG it is 0.975 ± 0.017; for GAGGGATGTT it is 1.01 ± 0.0092. In the case of GAGGGATTCC, the switch fluorescence ratio stood at 1.06 ± 0.095.

With GAGGGCACTT, the switch fluorescence ratio was 0.978 ± 0.043. The figure for GAGGGCCTTA is 0.9885 ± 0.0025.

For the sequence GAGGGCGGCG, the switch fluorescence ratio was 1.01 ± 0.11. For the sequence GAGGGCTAGT, the switch fluorescence ratio was found to be 0.9713 ± 0.0027. The figure for GAGGGGAAGC is 0.985 ± 0.046; for GAGGGGACAG it is 0.979 ± 0.035. The figure for GAGGGGAGAC is 1.02 ± 0.048; for GAGGGGCAGT it is 0.975 ± 0.02.

In the case of GAGGGGCGAC, the switch fluorescence ratio was 0.974 ± 0.032. On to GAGGGGGCCC, for which the switch fluorescence ratio is 1.01 ± 0.026. As to GAGGGGGGCG, the switch fluorescence ratio came out at 1.04 ± 0.085. As to GAGGGGGTGC, the switch fluorescence ratio worked out at 1.04 ± 0.069. The figure for GAGGGGTAGG is 0.977 ± 0.021. Regarding GAGGGGTATT, the switch fluorescence ratio stood at 0.986 ± 0.016.
